Experimental data from patent publication US20240325555A1 (LANOVA MEDICINES, published 2024).
Numbering of substitutions follows the chain as printed.

T1: human LIV-1 (human, UniProt Q13433 29-755)
T1 construct: whole, on cells; also called H-LIV1
T1 sequence (looked up): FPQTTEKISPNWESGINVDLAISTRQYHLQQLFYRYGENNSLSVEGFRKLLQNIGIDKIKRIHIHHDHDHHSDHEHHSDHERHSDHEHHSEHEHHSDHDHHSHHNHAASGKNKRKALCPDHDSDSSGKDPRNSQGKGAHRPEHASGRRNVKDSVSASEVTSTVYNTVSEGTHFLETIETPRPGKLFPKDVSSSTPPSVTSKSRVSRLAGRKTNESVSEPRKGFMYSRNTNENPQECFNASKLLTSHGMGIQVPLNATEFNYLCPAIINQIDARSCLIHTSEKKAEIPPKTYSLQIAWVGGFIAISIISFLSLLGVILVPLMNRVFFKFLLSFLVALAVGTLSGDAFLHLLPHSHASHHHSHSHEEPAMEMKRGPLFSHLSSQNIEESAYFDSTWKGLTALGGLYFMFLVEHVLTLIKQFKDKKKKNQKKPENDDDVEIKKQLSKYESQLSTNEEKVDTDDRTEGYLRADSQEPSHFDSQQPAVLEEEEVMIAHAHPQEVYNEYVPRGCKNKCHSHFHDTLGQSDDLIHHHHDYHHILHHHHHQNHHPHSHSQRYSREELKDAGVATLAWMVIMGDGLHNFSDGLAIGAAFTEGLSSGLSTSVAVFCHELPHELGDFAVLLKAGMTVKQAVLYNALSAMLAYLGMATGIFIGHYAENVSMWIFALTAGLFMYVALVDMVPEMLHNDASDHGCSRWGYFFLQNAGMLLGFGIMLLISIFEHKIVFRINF

B1: 79F5G5 (antibody, V domains shown)
VH: EVQLQQSGAELVRSGASVKLSCTASGFNIKDYYMHWVKQRPEQGLEWIGWIDPENGDTEYAPKFQGKATLTADTSSNTAYLQLSSLTFEDTAVYYCPHGGGLRVFDYWGQGTSLTVSS
VL: DVLMTQIPLSLSVSLGDQASISCRSSQSIVHSNGNTYLEWYLQKPGQSPKLLIYKVSNRFSGVPDRFSGSGSGTDFTLKISRVEAEDLGVYYCFQGSHVPWTFGGGTKLEIK
notes: Tested as chimeric antibody
B2: 94C4B9 (antibody, V domains shown)
VH: EVQLQQSGTVLARPGASVKMSCKASGYTFINYWMHWVKQRPGQGLEWIGAFYPGNSDTSYNQKFKDKAKLTAVTSTSTAYMEFSSLTNEDSAVYYCTRDFTAVPYFDYWGQGTTLTVSS
VL: B1 VL with V2I, I7T, S12P, H98Y, W101L, G105V, I111L
notes: Tested as chimeric antibody
B3: 99B3E8 (antibody, V domains shown)
VH: B2 VH with A16T, K38R, K63N, Y105F
VL: B1 VL with I7T, S12P, H98Y, W101L, G105V, I111L
notes: Tested as chimeric antibody
B4: 90H4F8 (antibody, V domains shown)
VH: QVQLQQSGPELVKPGASVRISCKASGYTFTSYHMHWVKQRPGQGLEWIGWIYPGNVKNQSNEKFKGKATLTADKSSSTAYMHLSSLTSEDSAVYFCARSDITRAFFAYWGQGTLVTVSA
VL: B1 VL with I7T, S12P, V99G, W101Y
notes: Tested as chimeric antibody
B5: 92E4E10 (antibody, V domains shown)
VH: EVQLQQSGTVLARPGASVKISCKASGYRFTSYWMHWVKQRPGQGLEWIGAIYPGNSDTTYNQKFKGKAKLTAVTSASTAYMDLSSLTNEDSAVYYCTSLLLRSPFDYWGQGTTLTVSS
VL: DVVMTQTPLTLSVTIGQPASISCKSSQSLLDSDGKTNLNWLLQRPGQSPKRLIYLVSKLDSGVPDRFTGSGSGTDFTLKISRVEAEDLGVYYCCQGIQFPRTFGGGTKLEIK
notes: Tested as chimeric antibody
B6: 82C7C7 (antibody, V domains shown)
VH: EVQLQQSGAELVKPGASIKLSCTPSGFNIKDTFIHWVKQRPEQGLEWIGRIDPANGNTRYDPKFQGKATITADTSSNTAYLQLISLTSEDTAVYYCAGGSISTVVPDYWGQGTTLTVSS
VL: DVVVTQTPLSLPVSLGDQASISCRSSQSLVHNNGNTYLHWYLQKPGQSPKLLIYKVSNRFSGVPDRFSGSGSGTDFTLKISRVEAEDLGVYFCSQSTHVPYTFGGGTKLEIK
notes: Tested as chimeric antibody
B7: 124H4D11.p2.z15 (antibody, V domains shown)
VH: QVPLVQSGAEVVKPGASVKLSCKASGFNIKDYYMHWVKQAPGQGLEWIGWIDPENDDTEYDPKFQGRATMTADTSTSTAYLELSSLRSEDTAVYYCNARYYAFDYWGQGTTVTVSS
VL: B1 VL with I7S, S12P, S14T, D17Q, Q18P, G34A, K44R, D75E, H98Q, W101P
B8: 124H4D11.p2.z14 (antibody, V domains shown)
VH: B7 VH
VL: DVLMTQSPLSLPVTLGQPASISCRSSQSIVHSNANTYLEWYLQRPGQSPRLLIYKVSNRFSGVPDRFSGSGSGTDFTLKISRVEAEDVGVYYCFQGSQVPPTFGQGTKLEIK
B9: 124H4D11.p2.z5 (antibody, V domains shown)
VH: B7 VH with P3Q, L20V, K38R, A68V, A79V, L81M, N97A, T111M
VL: B8 VL with R50K, D75E, V88L, Q105G
B10: 5D6B10.Z5 (antibody, V domains shown)
VH: QVQLVESGGGVVQPGRSLRLSCTVSGFSLTTYGIHWVRQSPGKGLEWLGVIWTGGTTDYNAAFISRLTISKDNSKSTLYFQMNSLRAEDTAVYYCARGPSSYWGQGTLVTVSS
VL: EIVMTQSPATLSVSPGERATVSCKASQNVDTNVVWYQQKPGQSPRALIHSASYRYSGVPDRFSGSGSGTDFTLTISSLQSEDFAVYFCQQYNNYPWTFGQGTKVEIK
B11: 5D6B10.Z10 (antibody, V domains shown)
VH: QVQLQESGPGLVKPSGTLSLTCAVSGFSLTTYGIHWVRQSPGKGLEWLGVIWTGGTTDYNAAFISRLTISKDKSKNQVSLKLSSVTAADTAVYYCARGPSSYWGQGTLVTVSS
VL: B10 VL with V21L, H49Y, D60A, D70E
B12: 5D6B10.Z4 (antibody, V domains shown)
VH: B10 VH
VL: B10 VL with V21L, H49Y, D60A, D70E
B13: 5D6B10.Z9 (antibody, V domains shown)
VH: B10 VH with E6Q, L78V, R86Q, V92I
VL: B10 VL with E1D, A19V, L78V, Q100G, V104L
B14: 5D6B10.Z2 (antibody, V domains shown)
VH: B10 VH with T23A, S40A, G49A, L67F, F80L
VL: B10 VL
B15: 5D6B10.Z6 (antibody, V domains shown)
VH: B10 VH
VL: B10 VL with E1D, A19V, L78V, Q100G, V104L
B16: 5D6B10.Z13 (antibody, V domains shown)
VH: B11 VH with E6Q, A23T, S79F, L80F, L82M, V85L
VL: B10 VL with V21L, H49Y, D60A, D70E
B17: 5D6B10.Z1 (antibody, V domains shown)
VH: B10 VH with T23A, S40A, G49A, L67F, F80L
VL: B10 VL with V21L, H49Y, D60A, D70E
B18: 5D6B10.Z8 (antibody, V domains shown)
VH: B10 VH with E6Q, L78V, R86Q, V92I
VL: B10 VL
B19: 5D6B10.Z12 (antibody, V domains shown)
VH: B11 VH
VL: B10 VL with E1D, A19V, L78V, Q100G, V104L
B20: 5D6B10.Z11 (antibody, V domains shown)
VH: B11 VH
VL: B10 VL
B21: 5D6B10.Z3 (antibody, V domains shown)
VH: B10 VH with T23A, S40A, G49A, L67F, F80L
VL: B10 VL with E1D, A19V, L78V, Q100G, V104L
B22: 124H4D11.p2.z2 (antibody, V domains shown)
VH: B7 VH with P3Q, L20V, K38R, A68V, A79V, L81M, N97A, T111M
VL: DVLMTQSPSSLSASVGDRVTITCRSSQSIVHSNANTYLEWYLQKPGKSPKLLIYKVSNRFSGVPDRFSGSGSGTEFTLTISSVQPEDFAVYYCFQGSQVPPTFGQGTRLEIK

The binders below were run against T1, human LIV-1 (assay: FACS, HEK293/H_LIV-1 cells).
Procedure: (§1) In this example, cell based binding of chimeric Abs on human and cyno LIV-1 over-expressing HEK 293 cells were assessed using flow cytometry.
(§2) Briefly, cells were incubated with chimeric Abs (from 100 nM, 5 folds dilution, 8 points). After incubation at 4° C. for 60 minutes, the cells were washed with 2% FBS/PBS buffer twice, then stained with fluorescent conjugated secondary antibody at 4° C. for 30 minutes. After that the cells were washed twice and resuspended in 80 μL of 2% FBS/PBS buffer. Fluorescent signal of binding was detected using Agilent. The EC50 was calculated using the GraphPad Software (LaJolla, CA).
With B1 the EC50 was 9.45 nM and the “Top (MFI)” value was 17500 MFI. With B2 the EC50 was 0.22 nM and the “Top (MFI)” value was 11600 MFI. In the case of B3, the EC50 is reported as 1.04 nM and the “Top (MFI)” value is reported as 12600 MFI. B4 was tested, and the EC50 was 1.08 nM and the “Top (MFI)” value was 12200 MFI. B5 was tested, and the EC50 was 0.34 nM and the “Top (MFI)” value was 66200 MFI. In the case of B6, the EC50 is reported as 0.61 nM and the “Top (MFI)” value is reported as 12300 MFI.

Target: T1, human LIV-1
Assay: FACS, HEK293/H_LIV-1 cells
Remark: another data set of the same source
Procedure: In this example, cell based binding of humanized antibodies (hu Abs) on human LIV-1-expressing cells were assessed using flow cytometry.
Cell based binding of hu-Abs on human LIV-1 expressing cells were assessed using flow cytometry. Briefly, the HEK293/H_LIV-1 cells were incubated with hu-Abs (from 100 nM, 6 folds dilution, 8 points). After incubation at 4° C. for 60 minutes, the cells were washed with FACS buffer twice, then stained with fluorescent conjugated secondary antibody at 4° C. for 30 minutes. After that the cells were washed twice and analyzed by flow cytometry.
With B7 the “Top (MFI)” value was 16800 MFI. For B8, the “Top (MFI)” value was 16800 MFI. With B9 the EC50 was 0.58 nM and the “Top (MFI)” value was 15600 MFI. With B10 the EC50 was 0.17 nM and the “Top (MFI)” value was 43400 MFI. In the case of B11, the EC50 is reported as 0.42 nM and the “Top (MFI)” value is reported as 63800 MFI. With B12 the EC50 was 0.28 nM and the “Top (MFI)” value was 53000 MFI. In the case of B13, the EC50 is reported as 0.24 nM and the “Top (MFI)” value is reported as 52600 MFI. B14 was tested, and the EC50 was 0.18 nM and the “Top (MFI)” value was 46700 MFI. For B15, the EC50 was 0.24 nM and the “Top (MFI)” value was 52700 MFI. In the case of B16, the EC50 is reported as 0.33 nM and the “Top (MFI)” value is reported as 64300 MFI. With B17 the EC50 was 0.16 nM and the “Top (MFI)” value was 49800 MFI. In the case of B18, the EC50 is reported as 0.19 nM and the “Top (MFI)” value is reported as 45700 MFI. B19 was tested, and the EC50 was 0.3 nM and the “Top (MFI)” value was 60300 MFI. For B20, the EC50 was 0.29 nM and the “Top (MFI)” value was 55300 MFI. B21 was tested, and the EC50 was 0.33 nM and the “Top (MFI)” value was 51200 MFI. In the case of B22, the “Top (MFI)” value is reported as 19400 MFI.

What follows are binders tested against T2, cynomolgus LIV-1 (cynomolgus, UniProt A0A2K5WH46 30-741) (assay: FACS, HEK293/Cyno_LIV-1 cells).
Procedure: as §1, §2
With B1 the EC50 was 1.85 nM and the “Top (MFI)” value was 7020 MFI. With B2 the EC50 was 0.15 nM and the “Top (MFI)” value was 7860 MFI. In the case of B3, the EC50 is reported as 0.34 nM and the “Top (MFI)” value is reported as 8240 MFI. B4 was tested, and the EC50 was 0.43 nM and the “Top (MFI)” value was 6880 MFI. For B5, the EC50 was 0.15 nM and the “Top (MFI)” value was 41300 MFI. In the case of B6, the EC50 is reported as 0.5 nM and the “Top (MFI)” value is reported as 7130 MFI.

Target: T2, cynomolgus LIV-1
Assay: FACS, HEK293/Cyno_LIV-1 cells
Remark: another data set of the same source
Target sequence in this assay (A0A2K5WH46 entry or part of it): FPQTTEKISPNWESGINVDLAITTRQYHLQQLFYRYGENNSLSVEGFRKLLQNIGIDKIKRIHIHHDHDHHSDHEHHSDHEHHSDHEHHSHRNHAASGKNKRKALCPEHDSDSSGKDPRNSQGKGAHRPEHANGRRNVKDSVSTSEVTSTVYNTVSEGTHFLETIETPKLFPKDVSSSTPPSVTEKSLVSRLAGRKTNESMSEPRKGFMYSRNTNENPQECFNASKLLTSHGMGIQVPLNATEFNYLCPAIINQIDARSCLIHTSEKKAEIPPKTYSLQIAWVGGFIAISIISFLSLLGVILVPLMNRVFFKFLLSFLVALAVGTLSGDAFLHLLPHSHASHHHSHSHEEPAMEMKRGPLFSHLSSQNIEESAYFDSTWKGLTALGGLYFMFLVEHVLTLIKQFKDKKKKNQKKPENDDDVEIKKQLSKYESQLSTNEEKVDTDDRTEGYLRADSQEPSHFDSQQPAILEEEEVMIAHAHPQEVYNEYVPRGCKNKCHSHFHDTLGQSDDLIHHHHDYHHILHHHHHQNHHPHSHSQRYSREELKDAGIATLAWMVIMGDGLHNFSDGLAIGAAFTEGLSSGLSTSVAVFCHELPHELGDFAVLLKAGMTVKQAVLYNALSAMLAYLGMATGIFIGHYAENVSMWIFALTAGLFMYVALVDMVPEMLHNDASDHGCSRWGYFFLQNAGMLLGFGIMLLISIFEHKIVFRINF
In the case of B7, the EC50 is reported as 5.37 nM and the “Top (MFI)” value is reported as 6910 MFI. With B8 the EC50 was 0.5 nM and the “Top (MFI)” value was 7670 MFI. In the case of B9, the EC50 is reported as 0.25 nM and the “Top (MFI)” value is reported as 8070 MFI. B10 was tested, and the EC50 was 1.72 nM and the “Top (MFI)” value was 12400 MFI. B11 was tested, and the EC50 was 0.47 nM and the “Top (MFI)” value was 25800 MFI. With B12 the EC50 was 0.2 nM and the “Top (MFI)” value was 19800 MFI. For B13, the EC50 was 0.23 nM and the “Top (MFI)” value was 16500 MFI. For B14, the EC50 was 4.56 nM and the “Top (MFI)” value was 14900 MFI. B15 was tested, and the EC50 was 0.16 nM and the “Top (MFI)” value was 16700 MFI. For B16, the EC50 was 0.5 nM and the “Top (MFI)” value was 26300 MFI. For B17, the EC50 was 0.13 nM and the “Top (MFI)” value was 19600 MFI. B18 was tested, and the EC50 was 4 nM and the “Top (MFI)” value was 12100 MFI. B19 was tested, and the EC50 was 0.46 nM and the “Top (MFI)” value was 24900 MFI. In the case of B20, the EC50 is reported as 11.6 nM and the “Top (MFI)” value is reported as 18300 MFI. In the case of B21, the EC50 is reported as 0.23 nM and the “Top (MFI)” value is reported as 17200 MFI. In the case of B22, the EC50 is reported as 0.2 nM and the “Top (MFI)” value is reported as 8390 MFI.
